# According to paper PMC4113718:
# Target: CXC chemokine receptor (CXCR) 4 on THP-1 cells (human (endogenous in THP-1)) (UniProt P61073)
# Sequence (P61073 whole entry): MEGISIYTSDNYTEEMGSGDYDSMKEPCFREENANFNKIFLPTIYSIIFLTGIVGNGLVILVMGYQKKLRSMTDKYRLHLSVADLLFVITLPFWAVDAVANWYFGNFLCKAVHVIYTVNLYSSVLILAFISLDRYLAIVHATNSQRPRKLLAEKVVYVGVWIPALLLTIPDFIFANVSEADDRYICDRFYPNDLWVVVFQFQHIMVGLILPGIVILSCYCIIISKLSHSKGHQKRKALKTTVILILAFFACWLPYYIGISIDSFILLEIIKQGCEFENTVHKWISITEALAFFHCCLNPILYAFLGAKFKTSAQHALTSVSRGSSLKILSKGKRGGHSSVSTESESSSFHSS
"bottom plateau (%), reduction of cAMP levels in forskolin-stimulated THP-1 cells","LogIC50 (pM), reduction of cAMP levels in forskolin-stimulated THP-1 cells",Substance
46.7%,,Ub(1–74)VV (from UniProt P0CG47 1-76) (ligand)
54.1%,2.3 log(pM),Ub(1–74)NN (from UniProt P0CG47 1-76) (ligand)
42.8%,,Ub(1–74)RR (from UniProt P0CG47 1-76) (ligand)
